Reference: patent US20240255503A1 (UNIVERSITY OF NEWCASTLE UPON TYNE, published 2024)

Experiments:
[1] = molecular target: C3b:FH1-4 complex (chip-bound C3b with co-injected WT FH1-4)
[2] = molecular target: T1, Human C3b (wild type), immobilised on a CM5 sensor chip (human, UniProt P01024 23-667; P01024 749-1663); assay: SPR steady-state affinity, FH1-4 20-0.156 µM over thioester-coupled WT C3b (899 RU)
T1 construct: also called WT C3b; WT C3

[3] = molecular target: T2, L1109V mutant C3b, immobilised on a CM5 sensor chip (human, UniProt P01024 23-667; P01024 749-1663); assay: SPR steady-state affinity, FH1-4 20-0.156 µM over thioester-coupled L1109V C3b (898 RU)
T2 construct: C3 purified from the serum of a homozygous aHUS patient and converted to C3b on the chip (898 RU, thioester coupled); also called L1109V C3b; variant C3b
T2 sequence (P01024 23-667 limits assumed, chain 1 of 2): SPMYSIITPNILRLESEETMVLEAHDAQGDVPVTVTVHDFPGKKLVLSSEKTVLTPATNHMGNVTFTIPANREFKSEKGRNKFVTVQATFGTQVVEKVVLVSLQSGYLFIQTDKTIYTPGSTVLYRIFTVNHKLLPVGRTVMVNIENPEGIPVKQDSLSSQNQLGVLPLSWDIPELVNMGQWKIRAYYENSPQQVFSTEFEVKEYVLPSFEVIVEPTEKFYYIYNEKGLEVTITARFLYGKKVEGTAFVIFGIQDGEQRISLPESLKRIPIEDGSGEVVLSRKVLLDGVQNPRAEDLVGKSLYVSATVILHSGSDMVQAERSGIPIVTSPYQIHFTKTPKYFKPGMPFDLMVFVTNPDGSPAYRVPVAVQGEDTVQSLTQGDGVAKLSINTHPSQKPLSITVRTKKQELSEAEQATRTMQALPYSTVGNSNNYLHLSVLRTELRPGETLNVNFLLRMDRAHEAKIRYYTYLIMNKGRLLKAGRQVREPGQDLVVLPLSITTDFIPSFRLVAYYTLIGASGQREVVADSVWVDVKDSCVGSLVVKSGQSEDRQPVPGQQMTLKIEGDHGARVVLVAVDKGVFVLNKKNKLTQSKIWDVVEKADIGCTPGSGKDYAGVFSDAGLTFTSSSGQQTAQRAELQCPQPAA
T2 sequence (P01024 749-1663 L1109V limits assumed, chain 2 of 2): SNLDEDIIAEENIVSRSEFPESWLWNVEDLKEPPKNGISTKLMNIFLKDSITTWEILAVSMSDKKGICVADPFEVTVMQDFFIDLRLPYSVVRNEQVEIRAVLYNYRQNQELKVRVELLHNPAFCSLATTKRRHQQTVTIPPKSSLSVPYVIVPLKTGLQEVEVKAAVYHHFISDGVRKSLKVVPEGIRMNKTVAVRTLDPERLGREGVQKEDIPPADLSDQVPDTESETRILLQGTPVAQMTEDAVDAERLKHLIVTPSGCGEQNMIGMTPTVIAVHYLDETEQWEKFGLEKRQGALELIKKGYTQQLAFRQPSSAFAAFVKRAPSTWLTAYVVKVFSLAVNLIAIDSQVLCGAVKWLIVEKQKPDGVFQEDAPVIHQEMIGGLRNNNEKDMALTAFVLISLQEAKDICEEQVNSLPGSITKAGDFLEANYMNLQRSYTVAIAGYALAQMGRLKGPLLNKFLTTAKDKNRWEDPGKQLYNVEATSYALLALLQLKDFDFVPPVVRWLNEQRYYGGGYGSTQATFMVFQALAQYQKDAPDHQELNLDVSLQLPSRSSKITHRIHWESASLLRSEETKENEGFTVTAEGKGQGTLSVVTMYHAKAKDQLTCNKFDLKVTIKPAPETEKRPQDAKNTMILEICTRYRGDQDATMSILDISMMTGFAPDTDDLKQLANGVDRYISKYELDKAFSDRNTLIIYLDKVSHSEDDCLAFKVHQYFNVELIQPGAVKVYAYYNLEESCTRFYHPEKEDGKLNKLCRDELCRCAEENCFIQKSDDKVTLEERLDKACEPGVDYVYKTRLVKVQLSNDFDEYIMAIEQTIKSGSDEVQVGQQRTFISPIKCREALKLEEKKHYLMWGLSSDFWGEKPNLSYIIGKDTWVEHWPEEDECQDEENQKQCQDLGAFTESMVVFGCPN

[4] = molecular target: T1, Human C3b (wild type), immobilised on a …; assay: SPR steady-state affinity fit (BIAevaluation S200), WT FH1-4 over C3b immobilised on a CM5 chip
From the text: Data was collected at 40 Hz and there was a 120s stabilisation period between each sample being injected.

[5] = molecular target: T1, Human C3b (wild type), immobilised on a …; assay: SPR steady-state affinity fit (BIAevaluation S200), WT FH1-4 over thiol-coupled WT C3b (899 RU) on a CM5 chip, PBST [Continued]
[6] = molecular target: T2, L1109V mutant C3b, immobilised on a CM5 …; assay: SPR affinity estimate, FL-FH over thioester-coupled mutant and WT C3b
From the text: (§1) Dissociation constants (KD) are given under the graphs showing each concentration vs RU curve labelled with the appropriate variant.

[7] = molecular target: T1, Human C3b (wild type), immobilised on a …; assay: SPR affinity estimate (not steady state), FL-FH 250-7.8 nM over thioester-coupled WT C3b
From the text: as §1

[8] = molecular target: T2, L1109V mutant C3b, immobilised on a CM5 …; assay: SPR affinity fit (BIAevaluation), WT full length FH over thiol-coupled L1109V C3b (898 RU) on a CM5 chip, PBST; printed under both panels [Continued]
From the text: as §1

[9] = molecular target: T3, C3b:FH1-4 complex (chip-bound C3b with co-injected WT FH1-4) (human, UniProt P01024 23-667; P01024 749-1663; P08603 19-263); assay: SPR TMC building, 62.5 nM FI with 125 nM WT FH1-4 over amine-coupled C3b
T3 construct: Composite target for the FI variants in the trimolecular complex (TMC) building assay, made of m1 and m3; FI and FH1-4 were injected together over C3b; also called FH/C3b; FH-1-4/C3b
T3 sequence (P01024 23-667 limits assumed, chain 1 of 2): as the sequence (P01024 23-667 limits assumed, chain 1 of 2) above
T3 sequence (P01024 749-1663 limits assumed, chain 2 of 2): as the sequence (P01024 749-1663 L1109V limits assumed, chain 2 of 2) above, with V361L counted along it

[10] = molecular target: T1, Human C3b (wild type), immobilised on a …; assay: SPR steady-state affinity, FH19-20 20-0.156 µM over thioester-coupled WT C3b (899 RU); WT C3b on the chip, not the L1109V mutant
[11] = molecular target: T2, L1109V mutant C3b, immobilised on a CM5 …; assay: SPR steady-state affinity, FH19-20 20-0.156 µM over thioester-coupled L1109V C3b (898 RU); fitted KD from the same SPR run on L1109V C3b that the text calls a lack of binding

T1 sequence (P01024 23-667 limits assumed, chain 1 of 2): as the sequence (P01024 23-667 limits assumed, chain 1 of 2) above
T1 sequence (P01024 749-1663 limits assumed, chain 2 of 2): as the sequence (P01024 749-1663 L1109V limits assumed, chain 2 of 2) above, with V361L counted along it

B1: Complement Factor I, wild type (active) (protein)
chain 1: KVTYTSQEDLVEKKCLAKKYTHLSCDKVFCQPWQRCIEGTCVCKLPYQCPKNGTAVCATNRRSFPTYCQQKSLECLHPGTKFLNNGTCTAEGKFSVSLKHGNTDSEGIVEVKLVDQDKTMFICKSSWSMREANVACLDLGFQQGADTQRRFKLSDLSINSTECLHVHCRGLETSLAECTFTKRRTMGYQDFADVVCYTQKADSPMDDFFQCVNGKYISQMKACDGINDCGDQSDELCCKACQGKGFHCKSGVCIPSQYQCNGEVDCITGEDEVGCAGFASVAQEETEILTADMDAERRRIKSLLPKLSCGVKNRMHI
chain 2: IVGGKRAQLGDLPWQVAIKDASGITCGGIYIGGCWILTAAHCLRASKTHRYQIWTTVVDWIHPDLKRIVIEYVDRIIFHENYNAGTYQNDIALIEMKKDGNKKDCELPRSIPACVPWSPYLFQPNDTCIVSGWGREKDNERVFSLQWGEVKLISNCSKFYGNRFYEKEMECAGTYDGSIDACKGDSGGPLVCMDANNVTYVWGVVSWGENCGKPEFPGVYTKVANYFDWISYHVGRPFISQYNV
[1]
  cleavage of chip-bound C3b to iC3b (SPR, 25° C.): the chip was shown to be degraded almost instantaneously after formation of a small amount of TMC (˜3 RU) and conversion of C3b to iC3b

B2: Inactive (S525A) Complement Factor I (protein)
chain: KVTYTSQEDLVEKKCLAKKYTHLSCDKVFCQPWQRCIEGTCVCKLPYQCPKNGTAVCATNRRSFPTYCQQKSLECLHPGTKFLNNGTCTAEGKFSVSLKHGNTDSEGIVEVKLVDQDKTMFICKSSWSMREANVACLDLGFQQGADTQRRFKLSDLSINSTECLHVHCRGLETSLAECTFTKRRTMGYQDFADVVCYTQKADSPMDDFFQCVNGKYISQMKACDGINDCGDQSDELCCKACQGKGFHCKSGVCIPSQYQCNGEVDCITGEDEVGCAGFASVTQEETEILTADMDAERRRIKSLLPKLSCGVKNRMHIRRKRIVGGKRAQLGDLPWQVAIKDASGITCGGIYIGGCWILTAAHCLRASKTHRYQIWTTVVDWIHPDLKRIVIEYVDRIIFHENYNAGTYQNDIALIEMKKDGNKKDCELPRSIPACVPWSPYLFQPNDTCIVSGWGREKDNERVFSLQWGEVKLISNCSKFYGNRFYEKEMECAGTYDGSIDACKGDAGGPLVCMDANNVTYVWGVVSWGENCGKPEFPGVYTKVANYFDWISYHVGRPFISQYNV
[1]
  cleavage of chip-bound C3b (SPR, convertase rebuilt before and after): Inactive (S525A) FI therefore demonstrated binding of the components of the AP regulatory TMC without cleaving the chip surface

B3: Complement Factor I with only an H380R mutation (protein)
chain: KVTYTSQEDLVEKKCLAKKYTHLSCDKVFCQPWQRCIEGTCVCKLPYQCPKNGTAVCATNRRSFPTYCQQKSLECLHPGTKFLNNGTCTAEGKFSVSLKHGNTDSEGIVEVKLVDQDKTMFICKSSWSMREANVACLDLGFQQGADTQRRFKLSDLSINSTECLHVHCRGLETSLAECTFTKRRTMGYQDFADVVCYTQKADSPMDDFFQCVNGKYISQMKACDGINDCGDQSDELCCKACQGKGFHCKSGVCIPSQYQCNGEVDCITGEDEVGCAGFASVTQEETEILTADMDAERRRIKSLLPKLSCGVKNRMHIRRKRIVGGKRAQLGDLPWQVAIKDASGITCGGIYIGGCWILTAARCLRASKTHRYQIWTTVVDWIHPDLKRIVIEYVDRIIFHENYNAGTYQNDIALIEMKKDGNKKDCELPRSIPACVPWSPYLFQPNDTCIVSGWGREKDNERVFSLQWGEVKLISNCSKFYGNRFYEKEMECAGTYDGSIDACKGDSGGPLVCMDANNVTYVWGVVSWGENCGKPEFPGVYTKVANYFDWISYHVGRPFISQYNV
[1]
  cleavage of chip-bound C3b (SPR): H380R FI appears to bind to WT FH1-4/C3b without cleaving the C3b coupled chip surface

B4: Recombinant Human Complement Factor H CCPs 1-4 (6x His-tagged), wild type (other)
chain: EKREAEAAGEQKLISEEDLEDCNELPPRRNTEILTGSWSDQTYPEGTQAIYKCRPGYRSLGNVIMVCRKGEWVALNPLRKCQKRPCGHPGDTPFGTFTLTGGNVFEYGVKAVYTCNEGYQLLGEINYRECDTDGWTNDIPICEVVKCLPVTAPENGKIVSSAMEPDREYHFGQAVRFVCNSGYKIEGDEEMHCSDDGFWSKEKPKCVEISCKSPDVINGSPISQKIIYKENERFQYKCNMGYEYSERGDAVCTESGWRPLPSCEHHHHHH
notes: Produced in-house; also called FH1-4; WT FH1-4
[2]
  Kd: 8.1 µM
[3]
  Kd: 9.2 µM
[4]
  Kd: 10.1 µM
[5]
  Kd: 8.09 µM

B5: Full Length Human Complement Factor H (FH) (other)
chain: EDCNELPPRRNTEILTGSWSDQTYPEGTQAIYKCRPGYRSLGNVIMVCRKGEWVALNPLRKCQKRPCGHPGDTPFGTFTLTGGNVFEYGVKAVYTCNEGYQLLGEINYRECDTDGWTNDIPICEVVKCLPVTAPENGKIVSSAMEPDREYHFGQAVRFVCNSGYKIEGDEEMHCSDDGFWSKEKPKCVEISCKSPDVINGSPISQKIIYKENERFQYKCNMGYEYSERGDAVCTESGWRPLPSCEEKSCDNPYIPNGDYSPLRIKHRTGDEITYQCRNGFYPATRGNTAKCTSTGWIPAPRCTLKPCDYPDIKHGGLYHENMRRPYFPVAVGKYYSYYCDEHFETPSGSYWDHIHCTQDGWSPAVPCLRKCYFPYLENGYNQNYGRKFVQGKSIDVACHPGYALPKAQTTVTCMENGWSPTPRCIRVKTCSKSSIDIENGFISESQYTYALKEKAKYQCKLGYVTADGETSGSITCGKDGWSAQPTCIKSCDIPVFMNARTKNDFTWFKLNDTLDYECHDGYESNTGSTTGSIVCGYNGWSDLPICYERECELPKIDVHLVPDRKKDQYKVGEVLKFSCKPGFTIVGPNSVQCYHFGLSPDLPICKEQVQSCGPPPELLNGNVKEKTKEEYGHSEVVEYYCNPRFLMKGPNKIQCVDGEWTTLPVCIVEESTCGDIPELEHGWAQLSSPPYYYGDSVEFNCSESFTMIGHRSITCIHGVWTQLPQCVAIDKLKKCKSSNLIILEEHLKNKKEFDHNSNIRYRCRGKEGWIHTVCINGRWDPEVNCSMAQIQLCPPPPQIPNSHNMTTTLNYRDGEKVSVLCQENYLIQEGEEITCKDGRWQSIPLCVEKIPCSQPPQIEHGTINSSRSSQESYAHGTKLSYTCEGGFRISEENETTCYMGKWSSPPQCEGLPCKSPPEISHGVVAHMSDSYQYGEEVTYKCFEGFGIDGPAIAKCLGEKWSHPPSCIKTDCLSLPSFENAIPMGEKKDVYKAGEQVTYTCATYYKMDGASNVTCINSRWTGRPTCRDTSCVNPPTVQNAYIVSRQMSKYPSGERVRYQCRSPYEMFGDEEVMCLNGNWTEPPQCKDSTGKCGPPPPIDNGDITSFPLSVYAPASSVEYQCQNLYQLEGNKRITCRNGQWSEPPKCLHPCVISREIMENYNIALRWTAKQKLYSRTGESVEFVCKRGYRLSSRSHTLRTTCWDGKLEYPTCAKR
notes: Bought (CompTech, A137); also called FL-FH; FLFH
[6]
  fold change of KD, mutant C3b against WT C3b: 3.6 fold
[7]
  Kd: 0.28 µM
[8]
  Kd: 1.01 µM

B6: Y459S inactive (S525A) Complement Factor I (enzyme)
chain: KVTYTSQEDLVEKKCLAKKYTHLSCDKVFCQPWQRCIEGTCVCKLPYQCPKNGTAVCATNRRSFPTYCQQKSLECLHPGTKFLNNGTCTAEGKFSVSLKHGNTDSEGIVEVKLVDQDKTMFICKSSWSMREANVACLDLGFQQGADTQRRFKLSDLSINSTECLHVHCRGLETSLAECTFTKRRTMGYQDFADVVCYTQKADSPMDDFFQCVNGKYISQMKACDGINDCGDQSDELCCKACQGKGFHCKSGVCIPSQYQCNGEVDCITGEDEVGCAGFASVTQEETEILTADMDAERRRIKSLLPKLSCGVKNRMHIRRKRIVGGKRAQLGDLPWQVAIKDASGITCGGIYIGGCWILTAAHCLRASKTHRYQIWTTVVDWIHPDLKRIVIEYVDRIIFHENYNAGTYQNDIALIEMKKDGNKKDCELPRSIPACVPWSPSLFQPNDTCIVSGWGREKDNERVFSLQWGEVKLISNCSKFYGNRFYEKEMECAGTYDGSIDACKGDAGGPLVCMDANNVTYVWGVVSWGENCGKPEFPGVYTKVANYFDWISYHVGRPFISQYNV
notes: also called Y459S FI
[9]
  increase in response (RU): ~2 RU

B7: Complement Factor H CCP domains 19-20 (WT FH CCP19-20) (other, human, UniProt P08603 1107-1231, looked up)
chain: GKCGPPPPIDNGDITSFPLSVYAPASSVEYQCQNLYQLEGNKRITCRNGQWSEPPKCLHPCVISREIMENYNIALRWTAKQKLYSRTGESVEFVCKRGYRLSSRSHTLRTTCWDGKLEYPTCAKR
notes: domain: CCP19-20; also called FH19-20
[10]
  Kd: 9.92 µM
[11]
  Kd: ~358 µM
